According to paper PMC8591422:

T1: PBX1-DBD (UniProt P40424 233-295)
T1 sequence: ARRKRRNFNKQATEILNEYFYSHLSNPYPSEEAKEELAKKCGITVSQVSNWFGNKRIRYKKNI

T2: PBX1 (recombinant, Origene) (UniProt P40424 1-430)
T2 sequence: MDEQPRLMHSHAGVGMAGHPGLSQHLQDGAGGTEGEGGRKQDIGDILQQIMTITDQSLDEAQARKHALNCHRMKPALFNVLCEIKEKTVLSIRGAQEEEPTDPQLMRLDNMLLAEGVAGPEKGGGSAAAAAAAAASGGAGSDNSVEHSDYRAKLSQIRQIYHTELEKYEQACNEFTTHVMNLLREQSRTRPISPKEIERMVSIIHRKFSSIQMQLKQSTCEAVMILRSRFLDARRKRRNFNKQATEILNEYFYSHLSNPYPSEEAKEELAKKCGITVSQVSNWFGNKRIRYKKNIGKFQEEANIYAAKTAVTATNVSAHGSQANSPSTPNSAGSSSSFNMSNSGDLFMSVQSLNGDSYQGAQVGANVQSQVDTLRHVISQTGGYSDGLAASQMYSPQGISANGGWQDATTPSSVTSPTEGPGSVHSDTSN

B1: PBX1 Probe (PBX1-CS-DNA-Biotin) (dsDNA)
DNA 1: CGAAATTGATTGATGCTTTAATTGAC
DNA 2: GTCAATTAAAGCATCAATCAATTTCG
B2: PBX-MEIS Probe (dsDNA)
DNA 1: CTGCGTTGATTGACAGCCGC
DNA 2: GCGGCTGTCAATCAACGCAG

Columns and labels:
PBX1-DBD = biological target: T1, PBX1-DBD; test: SPR
[1] = biological target: T2, PBX1 (recombinant, Origene); test: EMSA

| Binder | Kd (PBX1-DBD) | binding result [1] |
| --- | --- | --- |
| B1 | 800 pM |  |
| B2 |  | binds |
